The test system of the series is Escherichia coli TOP10. Put plainly: shrunken log2 fold change of peptide-encoding DNA abundance (4.5 h post-induction vs induction); higher = less antimicrobial activity (less host growth inhibition). The note with it: time post-induction: 4.5 h; library: site-saturation at positions 5, 18, 19, 20.
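Note: peptides expressed intracellularly from a pBAD plasmid library in pooled LB shake-flask culture, induced with 0.3% L-arabinose, DNA abundance read by NGS, three biological replicates, DESeq2 with apeglm shrinkage.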

As for RRIRYRPPRLPRPRPRPQSFPRP, the “shrunken log2 fold change” value is -0.0418. Under RRIRFRPPRLPRPRPRPIWIPRP stands -0.234; under RRIRHRPPRLPRPRPRPMWPPRP, 0.0906; under RRIRCRPPRLPRPRPRPLYMPRP, -0.807. Take RRIRIRPPRLPRPRPRPFVMPRP: the “shrunken log2 fold change” value is -0.275. For the sequence RRIRHRPPRLPRPRPRPVWTPRP, the “shrunken log2 fold change” value is -0.225. For RRIRMRPPRLPRPRPRPTAKPRP, the “shrunken log2 fold change” value amounted to 0.255. For RRIRARPPRLPRPRPRPPFFPRP the value was 0.603. In the case of RRIRMRPPRLPRPRPRPLRRPRP, the “shrunken log2 fold change” value worked out at 1.94. As to RRIRCRPPRLPRPRPRPPSAPRP, the “shrunken log2 fold change” value was found to be 0.345.

On to RRIRLRPPRLPRPRPRPACQPRP, for which the “shrunken log2 fold change” value is -0.0858. Turning to RRIRARPPRLPRPRPRPSRDPRP, the “shrunken log2 fold change” value was found to be 0.199. RRIRLRPPRLPRPRPRPTPWPRP: the “shrunken log2 fold change” value came to 0.381. With RRIRHRPPRLPRPRPRPCLGPRP, the “shrunken log2 fold change” value came to 0.0158. Under RRIRWRPPRLPRPRPRPRKGPRP stands 0.612; under RRIRRRPPRLPRPRPRPTYSPRP, -0.116. Under RRIRWRPPRLPRPRPRPNNKPRP stands -0.392; under RRIRIRPPRLPRPRPRPRQAPRP, 0.0194. Under RRIRRRPPRLPRPRPRPSLKPRP stands 0.108; under RRIRVRPPRLPRPRPRPSGHPRP, -0.185. Regarding RRIRYRPPRLPRPRPRPFLRPRP, the “shrunken log2 fold change” value was -0.308. Under RRIRYRPPRLPRPRPRPYHIPRP stands -0.23; under RRIRARPPRLPRPRPRPGEQPRP, 0.135; under RRIRWRPPRLPRPRPRPTCTPRP, 0.441. Turning to RRIRGRPPRLPRPRPRPNHFPRP, the “shrunken log2 fold change” value was -0.0611. For RRIRQRPPRLPRPRPRPMQFPRP the value was 0.0624. RRIRDRPPRLPRPRPRPVFIPRP: the “shrunken log2 fold change” value is -0.476.

For the sequence RRIRFRPPRLPRPRPRPSGIPRP, the “shrunken log2 fold change” value was -0.287. Under RRIRPRPPRLPRPRPRPILGPRP stands -0.148; under RRIRTRPPRLPRPRPRPYATPRP, -0.178; under RRIRMRPPRLPRPRPRPAMVPRP, 0.501. RRIRMRPPRLPRPRPRPVWPPRP: the “shrunken log2 fold change” value turned out to be 1.07. Under RRIRERPPRLPRPRPRPGRTPRP stands 0.251; under RRIRPRPPRLPRPRPRPHSGPRP, -0.169; under RRIRNRPPRLPRPRPRPAWWPRP, 0.293.

Turning to RRIRMRPPRLPRPRPRPALKPRP, the “shrunken log2 fold change” value amounted to 1.09. For RRIRMRPPRLPRPRPRPWYYPRP the value was -0.0257; for RRIRQRPPRLPRPRPRPNQNPRP, -0.24; for RRIRIRPPRLPRPRPRPLPWPRP, -0.019. RRIRYRPPRLPRPRPRPMHPPRP: the “shrunken log2 fold change” value was -0.0223. Under RRIRTRPPRLPRPRPRPQDLPRP stands -0.0848; under RRIRRRPPRLPRPRPRPQVSPRP, 0.0704. With RRIRRRPPRLPRPRPRPYIWPRP, the “shrunken log2 fold change” value is -0.335. Consider RRIRDRPPRLPRPRPRPFFAPRP, for which the “shrunken log2 fold change” value is 0.412. Under RRIRYRPPRLPRPRPRPRLIPRP stands -0.466; under RRIRIRPPRLPRPRPRPTRLPRP, 0.0583; under RRIRTRPPRLPRPRPRPHAEPRP, 0.17.

In the case of RRIRMRPPRLPRPRPRPAVFPRP, the “shrunken log2 fold change” value is 0.383. Turning to RRIRIRPPRLPRPRPRPTAIPRP, the “shrunken log2 fold change” value was -0.574.

As for RRIRVRPPRLPRPRPRPTDEPRP, the “shrunken log2 fold change” value was -0.148. Take RRIRWRPPRLPRPRPRPFWEPRP: the “shrunken log2 fold change” value turned out to be 0.121. For the sequence RRIRWRPPRLPRPRPRPQFAPRP, the “shrunken log2 fold change” value was 0.189. Turning to RRIRRRPPRLPRPRPRPDEPPRP, the “shrunken log2 fold change” value is -0.0328. Under RRIRDRPPRLPRPRPRPWSKPRP stands -0.203; under RRIRNRPPRLPRPRPRPSCQPRP, -0.185; under RRIRMRPPRLPRPRPRPEVFPRP, 1.35. For RRIRPRPPRLPRPRPRPFSGPRP the value was -0.478; for RRIRRRPPRLPRPRPRPSCCPRP, -0.0867; for RRIRQRPPRLPRPRPRPGYPPRP, -0.181.

Consider RRIRMRPPRLPRPRPRPMKIPRP, for which the “shrunken log2 fold change” value was -0.00146. For RRIRMRPPRLPRPRPRPGQDPRP the value was 0.781. For RRIRYRPPRLPRPRPRPANFPRP, the “shrunken log2 fold change” value came out at 0.0515. Turning to RRIRDRPPRLPRPRPRPESVPRP, the “shrunken log2 fold change” value was 0.0047. For RRIRTRPPRLPRPRPRPQREPRP the value was -0.0725; for RRIRIRPPRLPRPRPRPPSMPRP, -0.206; for RRIRARPPRLPRPRPRPECMPRP, 1.41.

For RRIRIRPPRLPRPRPRPDSTPRP, the “shrunken log2 fold change” value is 0.00478.

On to RRIRDRPPRLPRPRPRPSLGPRP, for which the “shrunken log2 fold change” value is 0.487.

With RRIRKRPPRLPRPRPRPEWHPRP, the “shrunken log2 fold change” value turned out to be 0.125. For RRIRYRPPRLPRPRPRPDKYPRP the value was 0.0363. Under RRIRYRPPRLPRPRPRPVFCPRP stands -0.419; under RRIRSRPPRLPRPRPRPRHVPRP, -0.0732. For RRIRLRPPRLPRPRPRPRKAPRP the value was 0.022. On to RRIRMRPPRLPRPRPRPVNQPRP, for which the “shrunken log2 fold change” value is -0.0449. On to RRIRFRPPRLPRPRPRPFFQPRP, for which the “shrunken log2 fold change” value was -0.378.

RRIRWRPPRLPRPRPRPKESPRP: the “shrunken log2 fold change” value came out at 0.293. For RRIRMRPPRLPRPRPRPWPGPRP the value was 0.528; for RRIRHRPPRLPRPRPRPDNKPRP, -0.27. Under RRIRRRPPRLPRPRPRPQWNPRP stands -0.153. For RRIRWRPPRLPRPRPRPIDLPRP the value was 0.0151; for RRIRGRPPRLPRPRPRPYNMPRP, -0.531. Consider RRIRARPPRLPRPRPRPMTKPRP, for which the “shrunken log2 fold change” value was found to be 0.248.

Take RRIRTRPPRLPRPRPRPEPNPRP: the “shrunken log2 fold change” value is -0.0182. Under RRIRHRPPRLPRPRPRPLEFPRP stands 0.0369. Under RRIRCRPPRLPRPRPRPTHFPRP stands 0.526. Under RRIRDRPPRLPRPRPRPRFSPRP stands -0.037; under RRIRLRPPRLPRPRPRPTDTPRP, -0.304; under RRIRWRPPRLPRPRPRPLSGPRP, 0.34.

As to RRIRERPPRLPRPRPRPDSGPRP, the “shrunken log2 fold change” value is -0.533. For RRIRHRPPRLPRPRPRPLGDPRP the value was 0.146; for RRIRIRPPRLPRPRPRPMRHPRP, 0.158; for RRIRERPPRLPRPRPRPMLSPRP, -0.376. Under RRIRGRPPRLPRPRPRPGPDPRP stands 0.62; under RRIRQRPPRLPRPRPRPFYVPRP, -0.484. For the sequence RRIRNRPPRLPRPRPRPEIYPRP, the “shrunken log2 fold change” value is -0.00989. Regarding RRIRVRPPRLPRPRPRPVRYPRP, the “shrunken log2 fold change” value was -0.136.

Take RRIRGRPPRLPRPRPRPCELPRP: the “shrunken log2 fold change” value is -0.02. Under RRIRYRPPRLPRPRPRPDDSPRP stands 0.00262; under RRIRHRPPRLPRPRPRPDRLPRP, -0.0627; under RRIRDRPPRLPRPRPRPQTYPRP, -0.24. For RRIRQRPPRLPRPRPRPKKVPRP the value was -0.0514; for RRIRPRPPRLPRPRPRPDWSPRP, -0.195; for RRIRKRPPRLPRPRPRPPWPPRP, 0.827. For RRIRHRPPRLPRPRPRPEHNPRP the value was -0.0734; for RRIRLRPPRLPRPRPRPYWVPRP, 0.135; for RRIRNRPPRLPRPRPRPYQYPRP, 0.0162.

As for RRIRVRPPRLPRPRPRPCHRPRP, the “shrunken log2 fold change” value was -0.0177. For RRIRGRPPRLPRPRPRPAGYPRP the value was 0.164; for RRIRERPPRLPRPRPRPIGMPRP, 0.115. Under RRIRGRPPRLPRPRPRPVTGPRP stands 0.21; under RRIRFRPPRLPRPRPRPNRMPRP, 0.0762.

For the sequence RRIRPRPPRLPRPRPRPSLFPRP, the “shrunken log2 fold change” value was -0.344. Under RRIRHRPPRLPRPRPRPFQYPRP stands -0.147; under RRIRIRPPRLPRPRPRPLFFPRP, -0.374. For the sequence RRIRTRPPRLPRPRPRPHGTPRP, the “shrunken log2 fold change” value amounted to 0.219. Under RRIRPRPPRLPRPRPRPLITPRP stands -0.357; under RRIRNRPPRLPRPRPRPHLQPRP, -0.198; under RRIRGRPPRLPRPRPRPQFGPRP, 0.0436.

With RRIRHRPPRLPRPRPRPCFKPRP, the “shrunken log2 fold change” value was -1.25. For RRIRSRPPRLPRPRPRPDDWPRP the value was 0.155; for RRIRLRPPRLPRPRPRPGKSPRP, -0.047; for RRIRVRPPRLPRPRPRPTKSPRP, -0.00156.

Consider RRIRQRPPRLPRPRPRPETTPRP, for which the “shrunken log2 fold change” value came to 0.0178. Under RRIRWRPPRLPRPRPRPLTTPRP stands 0.235; under RRIRCRPPRLPRPRPRPFLEPRP, -0.472.
